In the nanobody polyreactivity screen of Harvey et al. (2022):

Experiment: yeast display, Sf9 membrane polyspecificity reagent, FACS + sequencing; frameworks hold sequencing errors
Summary of the method: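 Sorting gates, low and high (top ~1%), were placed on anti-HA fluorescence to track expression and on streptavidin fluorescence to track reagent binding. A clone's polyreactivity label is taken from the gate it came out of. The reagent was 10% biotinylated, detergent-solubilized Sf9 membrane, applied for 1 hour at 4 °C to galactose-induced yeast display cells.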

Sequence | polyreactivity (PSR sort gate)
QVQLVESGGGLVQAGGSLRLSCAASGRTIPWNVMGWYRQAPGKERELVATITSRRTSTNYADSVKGRFTISRDNAKNTVYLQMNSLKPEDTAVYYCARRTVWGAGHYYYWGQGTQVTVSS | high polyreactivity
QDQLVESGGGLVQPGGSLRLSCAASGSTFANYAMGWYRQAPGNERQLVAALDHSGGSTYYADSVKGRFTISRDNAKNPVYLQMNSLKPEDTAVYYCNVVNGWLDVSSPDDSLAYLYDYWGQGSQVTVSS | low polyreactivity
QVQLVESGGGLVQAGGSLRLSCAASGIIFTSNTMGWYRQAPGKEREFVASINWNGSSTNADSVKGRFTISRDNAKNTVYLQMNSLKPEDTAVYYCNADYNRNSVQFSLYDYWGQGTQVTVSS | low polyreactivity
QVQLVESGGGLVQAGGSLRLSCAASGSTFKIYAMGWYRQAPGKERELVARITGRGGSTYYADSVKGRFTISRDNAKNTVYLQMNSLKPEDTAVYYCAARTYYVPYYYWGQGTQVTVSS | high polyreactivity
QVQLVESGGGLVQAGASLRLSCAASGLIFIHYAMGWYRQAPGKERELVATISRSGVRTYYADSVKGRFTISRDNAKNTVYLQMNSLKPEDTAVYYCAADYTTNFWGYRYNYWGQGTQVTVSS | low polyreactivity
QVQLVESGGGLVQAGGSLRLSCAASGRTFRYNALGWYRQAPGTERELVAAISRGTITNYAASVKGRFTISRDNAKNPVYFQLTSLKPEDTAVYYCNAGWGVVIRRYPTYHYWGQGTQVTVSS | high polyreactivity
QVQLVESGGGLVQAGASHRLSCAASGSTFRYNSMGSYRQAPGKERELVAAISRGGSTNYADSVNGRFTISRDNANNTVYLQMISLKPEATAVYYCAASGTRQEYDYWGQGTQVTVSS | high polyreactivity
QVQLVESGGGLVQAGGSLRLSCAASGFTFARYVMGWSRQAPGKERELVAGITYRVGSTYYADSVKGRFSISRDNAKNTVYLQMNSLKPEDTAVYYCAAYLSTGYYYWGQGTQVTVSS | high polyreactivity
QVQLVESGGGLVQAGGSLRLSCAASGSTFSRNAMGWYRQAPGKERELVASISWSGARTYYADSVKGRFTISRDNAKNTVYLQMNSLKPEDTAVYYCAKFRSYRGPYNYWGQGTQVTVSS | high polyreactivity
QVQLVESGGGLVQAGGSLRLSCADSGNIFSWYAMGWYRQAPGKERELVAAITWSGGTTYYADSVKGRFTISRDNAKNTVYLQMNSLKPEDTAVYYCAVFSRYRSGYYSWGQGTQVTVSS | high polyreactivity
QVQLVESGGGLVQAGGSLRLSCAASGRTFNIYAMGWYRQAPGKERELVAAITWRSGSTYYADSVKGRFTISRDNAKNTVYLQMNSLTPEDTAVYYCAAEQWSCVPEFDYWGQGTQVTVSS | high polyreactivity
QVQLVESGGGLVQAGGSLRLSCAASGFTLQQYTMGWYRQAPGKERELVAAISTSGVRTYYADSVKGRFTISRDNAKNTVYLQMNSLKPEDTAVYYCNAAWVYGIGWYSGYDYWGQGTQVTVSS | high polyreactivity
QVQLVESGGGLVQAGGSLRLSCAASGSTFDVYAMGWYRQAPGKERELVAGISSRGGRTYYADSVKGRFTISRDNAKNTVYLQMNSLKPEDTAVYYCAARYKGNPDRYGYWGQGTQVTVSS | high polyreactivity
QVQLVESGGGLVQAGGSLGLSCAASGSNFHSYAMGWYRQAPGKERELVGAISWCGGSTNYSDSVKGRFTISRDNAKNTVYLQMNSLKPEDTAVYYCAAKEFGSDEYKTGSGYDYWGQCTQVTVSS | low polyreactivity
QVQLQGSGGGLVQAGGSLRLSCAASGNIFDADIMAWYRQAPGKESELVASITDGGSTNYADSVKGRFTISRDNAKNTVYLQMNSLKQEDTAVYYCADIAYPDIPTYFDYDSDCFYWSQGTQVTVSS | high polyreactivity
QVQLVESGGGLVQAGCSLRLICAASGSTFDPNAMGWYRQSPGKERQLVAVIDSGDGTTYYADSVKGRFTISRDNAKNTVYLQMNSLKPEDTAVYYCAVDESTSYYDDHEDYWGQGTQVTVSS | low polyreactivity

Sequence | polyreactivity (PSR sort gate)
QVQLVESGGGLVQAGGSLRLSCAASGLTFVYYAMGWYRQAPGKERELVAAISSGGRTYYADSVKGRFTISRDNAKNTVYLQMNSLKPEDTGVYYCAAYGGTHYTYRYDYWGQGTQVNVSS | high polyreactivity
QVQLVESGGGLVQAGGSLRLSCAASGSIFGPYAMGWYRQAPGKERELVAAITWSGDSTYYADSVKGRFTISRDNAKNTVYLQMNSLKTEDTAVYYCAAETFIWGQGTQVTVSS | low polyreactivity
QVQLVESGGGLVQAGGSLRLSCDASGFTFARYNMGWYRQAPGKERELVAAISSRGSSTYYADSVKGRFTISRDNAKNTVYLQMNSLKAEDTAVYYCAAPPRYGYDYWGQGTQVTVSS | high polyreactivity
QVQLVESGGGLVQAGGSLRLSCAASGLIFTPYAMGWYRQAPGKESELVAAISSSGGTTYYADSVKGRFTISRDNAKNTVYLQMKSLKPEDTAVYYCAADTGYPGYYPEYYWGQGTQVTVSS | high polyreactivity
QVQLVESGGGLVPAGGSLRLSCAASGFTFGVYAMGWYRQAPGKERELVAAITWSGGRTYYADSVKGRFTISRDNAKNSVYLQMNSLKPEDTAVYYCAAGFYRYNAVRYDYWGQGTQVTVSS | high polyreactivity
QDQLVESVGGLNQAGGSLRLSCAASGIIFYPYTIGWYRQAPGKERELVAAIRQSGTSTYYADSVKGRFTISRDNAKNTVYLQMNSLKPEDTAVYYCNVEPYQPPGHDRSYAYDYWGQGTQVTVSS | low polyreactivity
QVQLVESGGGLVQAGGSLRLSCAASGLTFQPNVMGWYRQATGKERELVAAISVRTTRTYYADSVKGRFTISRDNAKNTVYLQMNSLKPEDTAVYYCNTDISRNYYWALYGYWGQGTQVTVSS | low polyreactivity
QVQLVESGGGLVQAGGSLRLSCAASGITFQRYAMGWYRQAPGKERELVAAITRRGGSTYYADSVKGRFTISRDNAKNTVYLQMNILKPEDTAVYYCAADLFFKARGYDYWGQGTQVTVSS | high polyreactivity
QVQLVESGGGLVQAGGSLRLSCAASGRTIGGYAMGWYRQAPGKERELVATITRGGRTYYADSVKGRFTISRDNAKNTVYLQMNSLKPEDTAVYYCAARYGQSRSVYNLYRFDYWGQGTQVTVSS | high polyreactivity
QVQLVESGGGLVQAGGSLRLSCAASGSTFIDYAMGWYRQAPGKERELVAGGSTNYADSVKGRFTISRDNAKNTVYLQMNSLKPEYTAVYYCNADALLYPYWGFDYWGQGTQVTVSS | low polyreactivity
QVQLVESGGGLVQAGGSLRLTCAASGGTFQVNAMGWYRQAPGKEMELVAAINRSGGGTTYADSVKGRFTISRDNAKNTVYLQMNSLKPEDTAVYYCAVDFYTYYYVEYGYWGQGTEVTVSS | high polyreactivity
QVQLVESGGGLVQAGGSLRLSCAASGSIFSKYAMGRYRPAPGKERELVAAISRRGGDTYYADSVKGRFTISRDNAKNTVYLQMNSLKPEDTAVYYCAAYQYYLYDYWGQGTQVTVSS | high polyreactivity
QVQLVESGGGLVQAGGSLRLSCAASGFIFEKYTMGWYRQAPGKERELVAAITWNGGSTYYADSVKGRFTISRDNAKNTVYLQMNSLIPEDTAVYYCARDDRDISGESGREGFLYDYWGQGTQVTVSS | low polyreactivity
QLQLVESGGGLVQAGGSLRLSCAASGSTFGPYTMGWYRQAPGKERELVATISSGGSTYYADSVKGRFTISRDNAKNTVYLQMNSLKPEDTAVYYCAARYWSIYDYWGQGTQVTVSS | low polyreactivity
QVQHVESGGGLVQAGGILRLSCAASGFTFPAYTMGWYRQAPGKERELVAAITSSGGNTYYADSVKGRFTISRDNAKNTLCLQMNSLKPEDTAVYYCATVSVRWPSNDHVRYDYWGQGTQVTVSS | low polyreactivity
QVQLQESGGLVQAGGSLRLSCAASGSISGRNVMGWYRQAPGKEREFVASITDGSSTNYADSVKGRVTISRDNAKNTVYLQMNSLKPKDTAVYYCAAYAQRAKSFGYWGRGTQVTVSS | low polyreactivity
